Data on one molecule can be found in patent US7670806B2, “ADP-ribosyl acceptor hydrolase 3 (ARH3) polypeptides and methods of use” (The United States of America as represented by the …, priority 2005, dated 2010).

A short description of assay [1]: Poly(ADP-ribose) hydrolysis (autoradiography, high resolution PAGE, HPLC). Particulars: [32P]poly(ADP-ribose) or poly(ADP-ribose)PARP; 37° C.; autoradiography / PAGE / HPLC. It counts as biochemical. The protocol:
Poly(ADP-ribose) hydrolysis by autoradiography. [^32P]poly(ADP-ribose)PARP (500 ng of PARP with poly(ADP-ribose) was incubated (37° C., 2 h) with 2 μM ARH in 25 μl of 50 mM potassium phosphate buffer, pH 7.5, with or without 10 mM MgCl2 and/or 5 mM DTT. Reactions were stopped by adding 6 μl of 5× Laemmli buffer. Samples (20 μl) of proteins were separated by SDS-PAGE in 4-20% gels and transferred to nitrocellulose membranes that were exposed to X-ray film (Kodak) for 10 h.
Hydrolysis of poly(ADP-ribose) by PARG and ARH3. Purified [^32P] poly(ADP-ribose) (5.5×10^5 cpm, ˜300 nM ADP-ribose) was incubated for the indicated time at 37° C. in 25 μl of 50 mM potassium phosphate, pH 7.5, containing 10 mM MgCl2 and 5 mM DTT with enzyme or other additions as indicated and terminated by addition of 25 μl of 2× electrophoresis buffer (Invitrogen). [^32P]AMP was generated by incubation (37° C., 3 h) of 10 μM [^32P] NAD (10 μCi/reaction) with pyrophosphatase (40 units/mg from SIGMA, 1 mg/ml) in 25 μl of 50 mM KPO4, pH 7.5, and 10 mM MgCl2. [^32P] ADP-ribose was generated in a 25 μl mixture containing 50 mM KPO4, pH 7.5, 25 μg of activated CTA, 10 μM [^32P] NAD (10 μCi/reaction), 10 mM MgCl2, and 5 mM DTT, which was incubated at 30° C. overnight. [^32P] phosphoribosyl-AMP was generated by incubation (37° C., 3 h) of [^32P]poly(ADP-ribose) (5.5×10^5 cpm, ˜300 nM ADP-ribose) with Crotalus adamanteus phosphodiesterase (10 mU/reaction), 25 μl of 50 mM KPO4, pH 7.5, 10 mM MgCl2, and 5 mM DTT. Identities of AMP and ADP-ribose standards were confirmed by HPLC on C18 and SAX columns respectively.
High resolution Polyacrylamide Gel Electrophoresis (PAGE). Polyacrylamide (20%) gels (20×20×0.15 cm) containing polyacrylamide and bis(acrylamide), in a ratio of 19:1, 100 mM Tris-borate, pH 8.3, 2 mM EDTA, 4.4 mM ammonium persulfate, and 3.4 mM TEMED with electrophoresis carried out for 2 h at 400V with 50 mM Tris-borate, pH 8.3, 1 mM EDTA, before application of samples (15 μl) were used for analysis of poly(ADP-ribose) degradation. Subsequent electrophoresis at 400V was stopped when bromophenol blue (BPB) had moved 9 cm from the origin. Gels were exposed to X-ray films (Kodak).
HPLC analysis. HPLC, Hewlett-Packard series 1100 equipped with a diode-array spectrophotometric detector set at 254 nm, was used for separation of reaction products. For anion exchange perfusion chromatography, Zorbax SAX column (4.6×250 mm; DuPont, Wilmington Del.) was washed with 20 mM potassium phosphate, pH 4.5, for 30 min, followed by a linear gradient of 0-1M NaCl in the same buffer for 10 min (30-40 min), then same buffer with 1M NaCl for 10 min (40-50 min) at a flow rate of 1 ml/min. Nicotinamide was eluted at 3 min, NAD at 10 min, and ADP-ribose at 40 min. For reverse phase, Discovery C18 column (4.6×250 mm; SUPELCO, Bellefonte Pa.) was used. Samples were separated isocratically with 100 mM potassium phosphate, pH 6.0 containing 7% methanol at a same flow rate of 1 ml/min. ADP-ribose was eluted at 6 min, NAD at 8 min, nicotinamide 9 min.
Poly(ADP-ribose)PARP was used as substrate to assay potential poly(ADP-ribose) hydrolase activities of recombinant ARH1, 2 or 3. Products were identified by autoradiography and HPLC. Fractions (1 ml) were collected for liquid scintillation counting to quantify [^14C]ADP-ribose, which was eluted in fractions from 34 min to 43 min. Because ARH1 activity may require both DTT and Mg^2+, depending on species (Takada et al. (1993) J. Biol. Chem. 268:17837-17843; Moss et al. (1992) J. Biol. Chem. 267:10481-10488), these reactions were performed with or without 10 mM MgCl2, and/or 5 mM DTT. […] Degradation of [^32P]poly(ADP-ribose) by ARH3 was enhanced by 10 mM MgCl2 (FIG. 4A). Data were similar with mouse ARH3.
Samples of [^14C] ADP-ribosylated PARP (250 ng, 15,000 cpm, ˜850 nM ADP-ribose) were incubated at 37° C. (total volume, 100 μl) with human ARH3 as indicated. […]

The nature of another assay: ADP-ribose binding assay. Particulars: 1 μM ARH3, 3 μM [14C]ADP-ribose, 30° C., 16 h. The protocol:
ADP-ribose binding assay. [^14C]ADP-ribose was generated by incubation overnight at 30° C. of 80 μM (10 μCi) [adenine-U-^14C]NAD with 50 μl of RT6.2 solution (5 nmol/h NADase activity; gift from Dr. Sunhee Park, NHLBI, National Institutes of Health, Bethesda, Md.) in 250 μl of 50 mM potassium phosphate, pH 7.5, and purified by HPLC using Zorbax Sax column as described above. [^14C]ADP-ribose, eluted at 40 min, was stored at −20° C.
To assess protein binding, 1 μM human wild type or D77N/D78N mutant ARH3 was incubated (30° C., 16 h) with 3 μM [^14C]ADP-ribose in 50 mM potassium phosphate buffer, pH 7.5, without or with 10 mM MgCl2, and/or 5 mM DTT (total volume 100 μl). A sample (90 μl) was applied to a column (0.5×4 cm) of Affi-Gel boronate (100 mg, Bio-Rad) which was equilibrated with 0.1 M glycine, pH 9.0, containing 0.1 M NaCl, with or without 10 mM MgCl2, and/or 5 mM DTT, and eluted with five 1-ml portions of the same solution. The total eluate, containing ARH with bound ADP-ribose was collected for liquid scintillation counting.
After incubation of wild-type or mutant ARH3 (1 μM) with [^14C]ADP-ribose (3 μM) (30° C., 16 h) without or with 10 mM MgCl2 and/or 5 mM DTT (total volume 100 μl), unbound ADP-ribose was removed by binding to Affi-gel boronate (Bio-Rad), and ARH3 with ADP-ribose bound, was collected for radioassay. […]

“Also recorded” adds a separate entry of the source.

B1: ARH3 (D77N/D78N): human ARH3 mutant with dual amino acid replacement D77N/D78N (protein)
chain: MAAAAMAAAAGGGAGAARSLSRFRGCLAGALLGDCVGSFYEAHDTVDLTSVLRHVQSLEPDPGTPGSERTEALYYTNNTAMARALVQSLLAKEAFDEVDMAHRFAQEYKKDPDRGYGAGVVTVFKKLLNPKCRDVFEPARAQFNGKGSYGNGGAMRVAGISLAYSSVQDVQKFARLSAQLTHASSLGYNGAILQALAVHLALQGESSSEHFLKQLLGHMEDLEGDAQSVLDARELGMEERPYSSRLKKIGELLDQASVTREEVVSELGNGIAAFESVPTAIYCFLRCMEPDPEIPSAFNSLQRTLIYSISLGGDTDTIATMAGAIAGAYYGMDQVPESWQQSCEGYEETDILAQSLHRVFQKS
Regarding B1, in assay [1], the “Poly(ADP-ribose) hydrolysis (in words)” value was “inactive; also recorded: No activity”. Further, the “[14C]ADP-ribose binding” value in “ADP-ribose binding assay” is given as “similar”.
